B1: TaHPPD4-02: native HPPD of Triticum aestivum ecotype 4, UniProt A0A3B6NLC6, SEQ ID NO: 195 (protein, listed as Triticum aestivum)
chain: MPPTPTTPAATGAAAVTPEHARPRRMVRFNPRSDRFHTLAFHHVEFWCADAASAAGRFAFALGAPLAARSDLSTGNSVHASQLLRSGNLAFLFTAPYANGCDAATASLPSFSADAARQFSADHGLAVRSIALRVADAAEAFRASVDGGARPAFSPVDLGRGFGFAEVELYGDVVLRFVSHPDGRDVPFLPGFEGVSNPDAVDYGLTRFDHVVGNVPELAPAAAYVAGFTGFHEFAEFTTEDVGTAESGLNSMVLANNSEGVLLPLNEPVHGTKRRSQIQTFLEHHGGSGVQHIAVASSDVLRTLREMRARSAMGGFDFLPPPLPKYYEGVRRIAGDVLSEAQIKECQELGVLVDRDDQGVLLQIFTKPVGDRPTLFLEMIQRIGCMEKDERGEEYQKGGCGGFGKGNFSELFKSIEDYEKSLEAKQSAAVQGS
modifications: TaHPPD4 Amino Acid Sequence
B2: TaHPPD3m-F372A-02: Triticum aestivum ecotype 3 HPPD mutant F372A, SEQ ID NO: 192 (protein)
chain: MPPTPTTPAATGAAAAAAVTPEHARPRRMVRFNPRSDRFHTLAFHHVEFWCADAASAAGRFAFALGAPLAARSDLSTGNSVHASQLLRSGNLAFLFTAPYANGCDAATASLPSFSADAARRFSADHGLAVRSIALRVADAAEAFRASVDGGARPAFSPVDLGRGFGFAEVELYGDVVLRFVSHPDDTDVPFLPGFEGVSNPDAVDYGLTRFDHVVGNVPELAPAAAYVAGFAGFHEFAEFTTEDVGTAESGLNSMVLANNSEGVLLPLNEPVHGTKRRSQIQTFLEHHGGPGVQHIAVASSDVLRTLREMRARSAMGGFDFLPPPLPKYYEGVRRIAGDVLSEAQIKECQELGVLVDRDDQGVLLQIATKPVGDRPTLFLEMIQRIGCMEKDERGEEYQKGGCGGFGKGNFSELFKSIEDYEKSLEAKQSAAVQAS
modifications: TaHPPD3m-F372A Amino Acid Sequence

System: Arabidopsis thaliana T1 plants
Assay: Topramezone tolerance of transgenic Arabidopsis thaliana T1 plants (pesticide damage grade by bleached leaf area, score, resistance evaluation)
Assay type: in vivo
Settings: HPPDs from ecotypes of Triticum aestivum; for Classification and statistics of pesticide damage grade: Grade 0 / Classification and statistics of pesticide damage grade: Grade 1 / Classification and statistics of pesticide damage grade: Grade 2 / Classification and statistics of pesticide damage grade: Grade 3: number of plants
Outline: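 Eighteen days after sowing, wild-type and HPPD-transgenic T1 Arabidopsis receive a topramezone spray at 1×, 2× or 4× field rate (25–100 g ai/ha) or water. Seven days later each plant is graded by its proportion of bleached leaf area.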

Molecule | Resistance evaluation (topramezone 25 g ai/ha (1x)) | Scores (topramezone 25 g ai/ha (1x)) | Classification and statistics of pesticide damage grade: Grade 0 (topramezone 25 g ai/ha (1x)) | Classification and statistics of pesticide damage grade: Grade 1 (topramezone 25 g ai/ha (1x)) | Classification and statistics of pesticide damage grade: Grade 2 (topramezone 25 g ai/ha (1x)) | Classification and statistics of pesticide damage grade: Grade 3 (topramezone 25 g ai/ha (1x)) | Resistance evaluation (topramezone 100 g ai/ha (4x)) | Scores (topramezone 100 g ai/ha (4x)) | Classification and statistics of pesticide damage grade: Grade 0 (topramezone 100 g ai/ha (4x)) | Classification and statistics of pesticide damage grade: Grade 1 (topramezone 100 g ai/ha (4x)) | Classification and statistics of pesticide damage grade: Grade 2 (topramezone 100 g ai/ha (4x)) | Classification and statistics of pesticide damage grade: Grade 3 (topramezone 100 g ai/ha (4x))
B1 | non-resistant (non-resistant plants (scores 68-100)) | 92 | 0 | 0 | 4 | 12 | non-resistant (non-resistant plants (scores 68-100)) | 100 | 0 | 0 | 0 | 16
B2 | highly resistant (highly resistant plants (scores 0-15)) | 0 | 16 | 0 | 0 | 0 | highly resistant (highly resistant plants (scores 0-15)) | 8 | 12 | 4 | 0 | 0
